Laboratory results: publication PMC6881253, “The PCNA interaction motifs revisited: thinking outside the PIP-box” (Cellular and Molecular Life Sciences: CMLS, 2019)

Legend:
Details in all cases: both partners purified
[1] = molecular target: T1, N-terminally His6-tagged human PCNA (proliferating cell nuclear antigen) (human, UniProt P12004 1-261); assay: ITC; ITC200; PCNA injected into the peptide; 10 mM HEPES, 150 mM NaCl, 1 mM EDTA, 1 mM TCEP, pH 7.4; 25 °C; single binding site model; triplicates
T1 construct: Proliferating cell nuclear antigen, human; The tag is used for capture in SPR; source: E. coli BL21(DE3), purified (Ni-NTA, SEC)

[2] = molecular target: T1, N-terminally His6-tagged human PCNA …; assay: SPR; Biacore T200, single-cycle; His6-PCNA captured by anti-His antibody coupled to a CM5 chip, peptides injected (five twofold dilutions); 10 mM HEPES, 150 mM NaCl, 0.05% P20, pH 7.4; 25 °C; kinetic fit for p21, steady-state fit for the other peptides
[3] = molecular target: T1, N-terminally His6-tagged human PCNA …; assay: as above; remark: listed apart in the source
[4] = molecular target: T1, N-terminally His6-tagged human PCNA …; assay: ITC; ITC200; PCNA injected into the peptide; 10 mM HEPES, 150 mM NaCl, 1 mM EDTA, 1 mM TCEP, pH 7.4; 25 °C; single binding site model; triplicates; remark: listed apart in the source

T1 sequence (P12004 whole entry): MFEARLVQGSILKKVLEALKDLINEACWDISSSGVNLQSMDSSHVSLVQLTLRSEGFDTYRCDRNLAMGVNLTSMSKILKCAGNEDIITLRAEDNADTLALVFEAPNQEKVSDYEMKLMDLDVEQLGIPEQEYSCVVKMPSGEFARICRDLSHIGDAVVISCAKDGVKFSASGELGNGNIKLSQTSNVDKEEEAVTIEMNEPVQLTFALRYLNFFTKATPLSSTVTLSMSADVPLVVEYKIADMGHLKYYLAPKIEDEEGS

B1: p21^143–157 peptide (Ac-RQTSMTDFYHSKRRL-NH2) (peptide)
peptide: Ac-RQTSMTDFYHSKRRL-NH2
notes: also called initial p21 peptide; p21 peptide; source: peptide, > 95% purity
B1 was tested, and the Kd [1] was 67 nM, the dH [1] was -55 kcal/mol and the koff [2] was 0.14 ± 0.0003 s⁻¹. The kon [2] was 1.7e+06 M⁻¹ s⁻¹, the “stoichiometry N” value [2] was 3 ligands per PCNA trimer and the Kd [3] was 80 nM.

B2: synthetic peptide harboring an APIM (Ac-MDRWLVKW-NH2) (peptide)
peptide: Ac-MDRWLVKW-NH2
notes: also called APIM peptide; source: synthetic peptide, > 95% purity
B2 showed a Kd [3] of 11000 nM.

B3: FEN1 peptide (Ac-TQGRLDDFFKVTGSL-NH2) (peptide)
peptide: Ac-TQGRLDDFFKVTGSL-NH2
notes: Flap endonuclease 1 (FEN1), human, canonical PIP-box; source: peptide, > 95% purity
In the case of B3, the Kd [3] is reported as 45000 nM.

B4: p21^140–157,Q144A (Ac-RKRRATSMTDFYHSKRRL-NH2) (peptide)
peptide: Ac-RKRRATSMTDFYHSKRRL-NH2
notes: also called p21 peptide variant with Q at the first position mutated to alanine; source: peptide, > 95% purity
For B4, the Kd [4] was 1300 nM.

B5: p21^140–157 peptide (peptide)
peptide: Ac-RKRRQTSMTDFYHSKRRL-NH2
notes: also called extended peptide; source: peptide, > 95% purity
B5 gave a Kd [4] of 27 nM.

B6: chimeric peptide comprising the Fen1 motif and the flanking regions of p21 (Ac-RKRRQGRLDDFFHSKRRL-NH2) (peptide)
peptide: Ac-RKRRQGRLDDFFHSKRRL-NH2
notes: PIP-box motif of flap endonuclease 1 (FEN1), human; also called p21 flanks grafted to Fen1; source: peptide, > 95% purity
In the case of B6, the Kd [4] is reported as 730 nM.

B7: p21^140–164 peptide (Ac-[residues removed]-NH2) (peptide)
peptide: RKRRQTSMTDFYHSKRRLIFSKRKP
modifications: N-terminally acetylated, C-terminally amidated
notes: called p21^140–163 in the results and the ITC methods; the name p21^140–163 is used elsewhere for the same peptide; also called p21^140–163; source: peptide, > 95% purity
B7 showed a Kd [4] of 6.4 nM.

B8: MSH6 peptide (Ac-RQSTLYSFFPKSPAL-NH2) (peptide)
peptide: Ac-RQSTLYSFFPKSPAL-NH2
notes: DNA mismatch repair protein MSH6, human, canonical PIP-box at the very N-terminus; source: peptide, > 95% purity
B8 showed a Kd [2] of 3000 ± 50 nM and a Kd [3] of 2900 nM.
